Laboratory results taken from paper PMC3141330 (Biochemistry, 2010).
Ends that are not written are not given here.

B1: GST-CHIP fusion (pGST-hCHIP (1-303)) (enzyme, human, UniProt Q9UNE7 1-303, looked up)
chain: MKGKEEKEGGARLGAGGGSPEKSPSAQELKEQGNRLFVGRKYPEAAACYGRAITRNPLVAVYYTNRALCYLKMQQHEQALADCRRALELDGQSVKAHFFLGQCQLEMESYDEAIANLQRAYSLAKEQRLNFGDDIPSALRIAKKKRWNSIEERRIHQESELHSYLSRLIAAERERELEECQRNHEGDEDDSHVRAQQACIEAKHDKYMADMDELFSQVDEKRKKRDIPDYLCGKISFELMREPCITPSGITYDRKDIEEHLQRVGHFDPVTRSPLTQEQLIPNLAMKEVIDAFISENGWVEDY
B2: His6-Hsp90β (full-length) (natural protein)
chain: not shown
B3: Carboxyl terminus of Hsc70-interacting protein (CHIP), full-length human, His6-tagged (enzyme, UniProt Q9UNE7 1-303, looked up)
chain: B1 chain

How the values were obtained:
[1] = biological target: B2; assay: pull-down
[2] = biological target: B3; assay: ITC
[3] = biological target: B3; assay: SEC
[4] = biological target: His6-Hsp70 (full-length, wild type) (UniProt P0DMV8 1-641); assay: ITC
Sequence of His6-Hsp70 (full-length, wild type) (P0DMV8 whole entry): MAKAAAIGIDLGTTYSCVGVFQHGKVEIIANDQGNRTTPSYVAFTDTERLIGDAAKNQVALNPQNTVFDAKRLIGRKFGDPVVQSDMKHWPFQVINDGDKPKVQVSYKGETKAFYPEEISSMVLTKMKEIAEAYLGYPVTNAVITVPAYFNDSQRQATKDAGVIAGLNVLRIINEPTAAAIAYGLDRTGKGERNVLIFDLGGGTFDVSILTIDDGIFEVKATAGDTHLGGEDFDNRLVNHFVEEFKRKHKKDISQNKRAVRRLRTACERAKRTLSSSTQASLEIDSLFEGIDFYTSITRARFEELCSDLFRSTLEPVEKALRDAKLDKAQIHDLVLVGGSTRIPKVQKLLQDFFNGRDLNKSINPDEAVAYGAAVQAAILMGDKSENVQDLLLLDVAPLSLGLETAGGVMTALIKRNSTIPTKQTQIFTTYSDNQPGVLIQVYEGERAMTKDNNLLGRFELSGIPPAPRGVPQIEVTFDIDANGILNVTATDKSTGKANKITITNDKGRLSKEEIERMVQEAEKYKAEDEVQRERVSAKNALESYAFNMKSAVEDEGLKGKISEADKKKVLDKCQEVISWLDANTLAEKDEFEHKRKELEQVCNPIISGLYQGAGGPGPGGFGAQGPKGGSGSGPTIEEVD

Binder: B1
- binding result [1]: binds

Binder: GGGAPPSGGASSGPTIEEVD-OH [Hsp70 C-terminal peptide (GGGAPPSGGASSGPTIEEVD-COO-), ITC]
- stoichiometry N [2]: ~0.8 C-terminal Hsp70 peptide per CHIP monomer

Binder: GSSAAWTEEMPPLEGDDDTSRMEEVD-OH [Hsp90 C-terminal peptide ([residues removed]-COO-), ITC]
- stoichiometry N [2]: ~0.9 Hsp90 C-terminal peptide per CHIP monomer

Binder: B2
- stoichiometry N [3]: ~2.1 Hsp90 monomers per CHIP monomer

Binder: B3
- Kd [4]: ~1000 nM
